Reference: patent US20220177577A1

B1: CK6-SET0207 (antibody, V domains shown)
VH: QVQLVQSGAAVKKPGESLKISCKGSGYRFTSYWIGWVRQMPGKGLEWMGIIYPGDSDTRYSPSFQGQVTISAGKSISTAYLQWSSLKASDTAMYYCARHGRGYNGYEGAFDIWGQGTMVTVSS
VL: AIQLTQSPSSLSASVGDRVTITCRASQGISSALAWYQQKPGKAPKLLIYDASSLESGVPSRFSGSGSGTDFTLTISSLQPEDFATYYCQQFNSYPLTFGGGTKVEIK
modifications: here or on the partner: SET0207 payload ('Non-cleavable natural') conjugated, Fc modification D265C H435A, DAR 2.0
B2: CK6 S239C-PNU (antibody, V domains shown)
VH: B1 VH
VL: B1 VL
modifications: here or on the partner: PNU (DNA topoisomerase I/II inhibitor) conjugated, Fc modification S239C (printed S2390 in Table 4), DAR 1.4
B3: CK6 S239C-PBD (antibody, V domains shown)
VH: B1 VH
VL: B1 VL
modifications: here or on the partner: PBD (DNA cross linker) conjugated, Fc modification S239C, DAR 1.7
B4: CK6 S239C-DM (antibody, V domains shown)
VH: B1 VH
VL: B1 VL
modifications: here or on the partner: duocarmycin (DM) conjugated, Fc modification S239C, DAR 1.65
B5: CK6 S239C-D4 (antibody, V domains shown)
VH: B1 VH
VL: B1 VL
modifications: here or on the partner: calicheamicin (D4) conjugated, Fc modification S239C, DAR 1.72

The binders below were run against CD117 on Kasumi-1 cells and on primary human CD34+ bone marrow cells (human), P10721 (assay: cell-based or functional assay).
CD117 on Kasumi-1 cells and on primary human CD34+ bone marrow cells (human), P10721, sequence (P10721 26-976): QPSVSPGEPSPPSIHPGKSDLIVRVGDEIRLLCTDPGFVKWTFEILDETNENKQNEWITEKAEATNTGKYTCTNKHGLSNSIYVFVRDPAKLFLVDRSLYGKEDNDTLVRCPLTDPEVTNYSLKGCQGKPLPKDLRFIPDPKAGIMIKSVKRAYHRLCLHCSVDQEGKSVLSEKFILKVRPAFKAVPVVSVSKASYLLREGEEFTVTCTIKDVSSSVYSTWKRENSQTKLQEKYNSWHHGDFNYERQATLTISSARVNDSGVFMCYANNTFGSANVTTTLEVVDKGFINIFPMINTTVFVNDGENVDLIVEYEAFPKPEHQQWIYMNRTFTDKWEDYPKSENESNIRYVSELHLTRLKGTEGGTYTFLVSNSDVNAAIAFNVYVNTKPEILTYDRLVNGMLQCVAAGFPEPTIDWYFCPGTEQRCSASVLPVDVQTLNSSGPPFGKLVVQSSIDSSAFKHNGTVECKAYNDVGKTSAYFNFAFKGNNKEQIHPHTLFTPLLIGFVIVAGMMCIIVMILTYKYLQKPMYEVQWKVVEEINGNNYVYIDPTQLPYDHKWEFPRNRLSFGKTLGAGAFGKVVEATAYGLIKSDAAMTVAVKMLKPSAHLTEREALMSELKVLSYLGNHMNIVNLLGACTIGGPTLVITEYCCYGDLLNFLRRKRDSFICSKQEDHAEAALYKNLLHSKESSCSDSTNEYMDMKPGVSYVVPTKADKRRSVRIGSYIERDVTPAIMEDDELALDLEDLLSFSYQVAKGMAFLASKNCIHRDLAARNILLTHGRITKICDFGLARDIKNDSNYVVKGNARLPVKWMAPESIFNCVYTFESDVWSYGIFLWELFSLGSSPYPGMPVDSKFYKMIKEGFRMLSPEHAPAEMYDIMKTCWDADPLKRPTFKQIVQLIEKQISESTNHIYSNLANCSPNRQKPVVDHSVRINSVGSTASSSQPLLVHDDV
Work on B1 yielded a % Efficacy, in vitro Kasumi cell killing assay of 0% and a % Efficacy, in vitro hCD34 cell killing assay of 9.18%.
For B2, the % Efficacy, in vitro Kasumi cell killing assay was 85.7% and the % Efficacy, in vitro hCD34 cell killing assay was 74.4%.
B3 gave a % Efficacy, in vitro Kasumi cell killing assay of 60.7% and a % Efficacy, in vitro hCD34 cell killing assay of 97.3%.
In the case of B4, the % Efficacy, in vitro Kasumi cell killing assay is reported as 0% and the % Efficacy, in vitro hCD34 cell killing assay is reported as 66.2%.
B5 gave a % Efficacy, in vitro Kasumi cell killing assay of 0% and a % Efficacy, in vitro hCD34 cell killing assay of 52.3%.
